Like-named read-outs stand apart in the source and are kept apart here.
How the values were obtained:
[1] = molecular target: T1, Human CD3 delta (CD3 delta) protein (His Tag) (human, UniProt P04234 22-105); test: ELISA, antigen coated on plate
T1 construct: extracellular domain; Bought protein; not shown: His tag

mouse CD3epsilon protein [2] = molecular target: T2, mouse CD3epsilon protein (mouse, UniProt P22646 22-108, limits assumed); test: ELISA, antigen coated on plate
[3] = molecular target: T3, Human CD3 Gamma (CD3gamma) protein (human, UniProt P09693 23-116); test: ELISA, antigen coated on plate
T3 construct: extracellular domain; Bought protein
T3 sequence (P09693 23-116): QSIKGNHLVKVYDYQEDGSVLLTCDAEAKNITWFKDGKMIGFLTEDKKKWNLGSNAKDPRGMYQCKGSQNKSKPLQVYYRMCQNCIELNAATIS

[4] = molecular target: T4, Cynomolgus Monkey CD3 epsilon protein (Cynomolgus monkey, UniProt Q95LI5 22-117); test: ELISA, antigen coated on plate
T4 construct: Bought protein; also called Cyno-Monkey CD3epsilon
T4 sequence (looked up): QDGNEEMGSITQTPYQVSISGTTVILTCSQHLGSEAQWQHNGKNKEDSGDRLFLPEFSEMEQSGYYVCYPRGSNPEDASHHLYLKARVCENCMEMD

[5] = molecular target: T5, Human CD3 epsilon (CD3epsilon) protein (His Tag) (human, UniProt P07766 23-126); test: ELISA, antigen coated on plate
T5 construct: extracellular domain; Bought protein; also called recombinant human CD3epsilon ECD; not shown: His tag
T5 sequence (P07766 23-126): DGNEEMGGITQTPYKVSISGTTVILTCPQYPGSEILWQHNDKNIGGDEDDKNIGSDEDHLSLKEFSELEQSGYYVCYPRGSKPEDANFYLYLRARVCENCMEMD

mouse CD3epsilon protein [6] = molecular target: T2, mouse CD3epsilon protein; test: ELISA, antigen coated on plate; remark: listed apart in the source
[7] = molecular target: T4, Cynomolgus Monkey CD3 epsilon protein; test: ELISA, antigen coated on plate; remark: listed apart in the source
[8] = molecular target: T5, Human CD3 epsilon (CD3epsilon) protein …; test: ELISA, antigen coated on plate; remark: listed apart in the source
[9] = molecular target: T6, human CD3 expressed on cells (Jurkat cells; human CD4 T cells) (human, UniProt P07766 23-207); test: flow cytometry on Jurkat cells
T6 construct: whole, on cells; also called human CD3 receptor on T cell surface; human CD3 expressing cells (Jurkat cells)
T6 sequence (P07766 23-207): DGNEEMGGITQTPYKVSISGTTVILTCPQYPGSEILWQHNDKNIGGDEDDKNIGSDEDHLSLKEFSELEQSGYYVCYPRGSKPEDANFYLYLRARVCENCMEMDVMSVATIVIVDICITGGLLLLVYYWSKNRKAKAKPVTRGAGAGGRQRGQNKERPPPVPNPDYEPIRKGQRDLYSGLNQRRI
Protocol: Various concentrations of testing mAbs were added to Jurkat cells, and then the binding activity of mAbs onto the surface of cells was detected by 2nd antibody-FITC. OKT3 was used as the positive control. The stained cells were analyzed by using a BD Biosciences FACSCanto II instrument and Flow Jo Version software. The binding EC₅₀ were calculated by using GraphPad Prism software equation: Nonlinear regression (curve fit)—log (agonist) vs. response-Variable slope.

[10] = molecular target: T1, Human CD3 delta (CD3 delta) protein …; test: ELISA, antigen coated on plate, HRP-labelled 2nd antibody
Protocol: (§1) Human CD3epsilon, CD3delta and CD3gamma proteins were pre-coated in 96-well plates, respectively. The binding affinity of eight mAbs at various concentrations to these three different CD3 protein extracellular domain was detected by corresponding HRP labeled 2nd antibodies. The binding EC₅₀ (concentration of the test antibody when reaching half maximum binding) were analyzed by using GraphPad Prism software equation: Nonlinear regression (curve fit)—log (agonist) vs. response-Variable slope.

[11] = molecular target: T5, Human CD3 epsilon (CD3epsilon) protein …; test: as above
Protocol: as §1

[12] = molecular target: T3, Human CD3 Gamma (CD3gamma) protein; test: as above
Protocol: as §1

[13] = molecular target: T4, Cynomolgus Monkey CD3 epsilon protein; test: ELISA, antigen coated on plate; remark: listed apart in the source
[14] = molecular target: T6, human CD3 expressed on cells (Jurkat …); test: flow cytometry on Jurkat cells, one site saturation fit; design: Best fit-Bmax: unit not given here
[15] = molecular target: T6, human CD3 expressed on cells (Jurkat …); test: flow cytometry on human CD4 T cells

T2 sequence (P22646 22-108 limits assumed): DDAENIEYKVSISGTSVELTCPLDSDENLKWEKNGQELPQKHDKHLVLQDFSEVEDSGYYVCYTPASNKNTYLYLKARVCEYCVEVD
T1 sequence (P04234 22-105, stated change not applied): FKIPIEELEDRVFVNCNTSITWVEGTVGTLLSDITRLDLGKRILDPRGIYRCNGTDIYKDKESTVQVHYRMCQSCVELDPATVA

- binding result [1]: no binding
- binding result (mouse CD3epsilon protein [2]): no binding
- binding result [3]: no binding
- ELISA (A450) [4]: 2.81 A450
- ELISA (A450) [5]: 2.76 A450
- ELISA (A450) (mouse CD3epsilon protein [6]): 0.446 A450
- EC50 [7]: 0.033 nM
- EC50 [8]: 0.049 nM
- EC50 [9]: 6.91 nM
- MFI (FACS) [9]: 2140 MFI
- ELISA (A450) [10]: 0.05 A450
- ELISA (A450) [11]: 1.64 A450
- ELISA (A450) [12]: 0.05 A450
- EC50 [13]: 0.125 nM
- Best fit-Bmax [14]: 1.26e-10
- Kd [14]: 1.67 nM
- EC50 [15]: 3.51 nM
B1: WBP3311_2.166.48 (antibody, IgG2a, V domains shown)
VH: QVQLQQSGPELVKPGASVKIACKASGYSFTTYYIHWVKQRPGQGLEWIGWIFPGNDNIKYSEKFKGKATLTADTSSSTAYMQLSSLTSEDSAVYFCAIDSVSIYYFDYWGQGTTLTVSS
VL: DIVMSQSPSSLAVSAGEKVTMSCKSSQSLLNSRTRKNYLAWYQQKPGQSPKLLIYWASTRKSGVPDRFTGSGSGTDFTLTINSVQAEDLAVYYCTQSFILRTFGGGTKLEIK
notes: Mouse monoclonal antibody from hybridoma; also called W3311-2.166.48; W3311_2.166.48

From US20200299384A1 (published 2020)
